# Measured values as given in publication PMC5538626, “Structural and functional analysis of the GABARAP interaction motif (GIM)” (EMBO Reports, 2017).
# B1: PLEKHM1‐WCIL (full length): full-length PLEKHM1-Flag, variant LIR WVNV/WCIL (protein)
# chain: MLSVVENGLDPQAAIPVIKKKLVGSVKALQKQYVSLDTVVTSEDGDANTMCSALEAVFIHGLHAKHIRAEAGGKRKKSAHQKPLPQPVFWPLLKAVTHKHIISELEHLTFVNTDVGRCRAWLRLALNDGLMECYLKLLLQEQARLHEYYQPTALLRDAEEGEFLLSFLQGLTSLSFELSYKSAILNEWTLTPLALSGLCPLSELDPLSTSGAELQRKESLDSISHSSGSEDIEVHHSGHKIRRNQKLTASSLSLDTASSSQLSCSLNSDSCLLQENGSKSPDHCEEPMSCDSDLGTANAEDSDRSLQEVLLEFSKAQVNSVPTNGLSQETEIPTPQASLSLHGLNTSTYLHCEAPAEPLPAQAASGTQDGVHVQEPRPQAPSPLDLQQPVESTSGQQPSSTVSETAREVGQGNGLQKAQAHDGAGLKLVVSSPTSPKNKSWISEDDFYRPSREQPLESASDHPIASYRGTPGSRPGLHRHFSQEPRKNCSLGALDQACVPSPGRRQAQAAPSQGHKSFRVVHRRQMGLSNPFRGLMKLGTVERRGAMGIWKELFCELSPLEFRLYLSNEEHTCVENCSLLRCESVGPAHSDGRFELVFSGKKLALRASSQDEAEDWLDRVREALQKVRPQQEDEWCILQYPDQPEEPPEAPQGCLSPSDLLSEPAALQGTQFDWSSAQVPEPDAIKESLLYLYMDRTWMPYIFSLSLEALKCFRIRNNEKMLSDSHGVETIRDILPDTSLGGPSFFKIITAKAVLKLQAGNAEEAALWRDLVRKVLASYLETAEEAVTLGGSLDENCQEVLKFATRENGFLLQYLVAIPMEKGLDSQGCFCAGCSRQIGFSFVRPKLCAFSGLYYCDICHQDDASVIPARIIHNWDLTKRPICRQALKFLTQIRAQPLINLQMVNASLYEHVERMHLIGRRREQLKLLGDYLGLCRSGALKELSKRLNHRNYLLESPHRFSVADLQQIADGVYEGFLKALIEFASQHVYHCDLCTQRGFICQICQHHDIIFPFEFDTTVRCAECKTVFHQSCQAVVKKGCPRCARRRKYQEQNIFA
# modifications: left off: Flag, end not stated, kept
# B2: Plekhm1-mutLIR: full-length PLEKHM1-Flag, mutant LIR EDEWVNV/AAAAVNG (protein)
# chain: MLSVVENGLDPQAAIPVIKKKLVGSVKALQKQYVSLDTVVTSEDGDANTMCSALEAVFIHGLHAKHIRAEAGGKRKKSAHQKPLPQPVFWPLLKAVTHKHIISELEHLTFVNTDVGRCRAWLRLALNDGLMECYLKLLLQEQARLHEYYQPTALLRDAEEGEFLLSFLQGLTSLSFELSYKSAILNEWTLTPLALSGLCPLSELDPLSTSGAELQRKESLDSISHSSGSEDIEVHHSGHKIRRNQKLTASSLSLDTASSSQLSCSLNSDSCLLQENGSKSPDHCEEPMSCDSDLGTANAEDSDRSLQEVLLEFSKAQVNSVPTNGLSQETEIPTPQASLSLHGLNTSTYLHCEAPAEPLPAQAASGTQDGVHVQEPRPQAPSPLDLQQPVESTSGQQPSSTVSETAREVGQGNGLQKAQAHDGAGLKLVVSSPTSPKNKSWISEDDFYRPSREQPLESASDHPIASYRGTPGSRPGLHRHFSQEPRKNCSLGALDQACVPSPGRRQAQAAPSQGHKSFRVVHRRQMGLSNPFRGLMKLGTVERRGAMGIWKELFCELSPLEFRLYLSNEEHTCVENCSLLRCESVGPAHSDGRFELVFSGKKLALRASSQDEAEDWLDRVREALQKVRPQQAAAAVNGQYPDQPEEPPEAPQGCLSPSDLLSEPAALQGTQFDWSSAQVPEPDAIKESLLYLYMDRTWMPYIFSLSLEALKCFRIRNNEKMLSDSHGVETIRDILPDTSLGGPSFFKIITAKAVLKLQAGNAEEAALWRDLVRKVLASYLETAEEAVTLGGSLDENCQEVLKFATRENGFLLQYLVAIPMEKGLDSQGCFCAGCSRQIGFSFVRPKLCAFSGLYYCDICHQDDASVIPARIIHNWDLTKRPICRQALKFLTQIRAQPLINLQMVNASLYEHVERMHLIGRRREQLKLLGDYLGLCRSGALKELSKRLNHRNYLLESPHRFSVADLQQIADGVYEGFLKALIEFASQHVYHCDLCTQRGFICQICQHHDIIFPFEFDTTVRCAECKTVFHQSCQAVVKKGCPRCARRRKYQEQNIFA
# modifications: left off: Flag, end not stated, kept
# B3: E19V: GFP-FUNDC1 E19V (protein, UniProt Q8IVP5 1-155, looked up, variant E19V)
# FUN14 domain-containing …: MATRNPPPQDYESDDDSYVVLDLTEYARRHQWWNRVFGHSSGPMVEKYSVATQIVMGGVTGWCAGFLFQKVGKLAATAVGGGFLLLQIASHSGYVQIDWKRVEKDVNKAKRQIKKRANKAAPEINNLIEEATEFIKQNIVISSGFVGGFLLGLAS
# modifications: GFP tag
# B4: L21V: GFP-FUNDC1 L21V (protein, UniProt Q8IVP5 1-155, looked up, variant L21V)
# FUN14 domain-containing …: MATRNPPPQDYESDDDSYEVVDLTEYARRHQWWNRVFGHSSGPMVEKYSVATQIVMGGVTGWCAGFLFQKVGKLAATAVGGGFLLLQIASHSGYVQIDWKRVEKDVNKAKRQIKKRANKAAPEINNLIEEATEFIKQNIVISSGFVGGFLLGLAS
# modifications: GFP tag
# Key:
# [1] = tested on: GFP-LC3B; assay: Co-immunoprecipitation of full-length PLEKHM1 LIR variants with GFP-LC3B; settings: full-length PLEKHM1-Flag, Fig 4C
# [2] = tested on: endogenous GABARAP; assay: Co-immunoprecipitation of GFP-FUNDC1 with endogenous GABARAP, HEK293 cells; type: cell-based; settings: HEK293, non-stimulated (DMSO); Fig 5C left
# Procedure: (§1) Blots were probed for the presence of endogenous GABARAP and LC3B proteins. • 3xFlag‐FIP200 WT, E703V, I705V, E703V/I705V and F702A/I705A were overexpressed in HEK293 cells and immunoprecipitated using anti‐Flag beads and subjected to SDS–PAGE and Western blotting. Blots were probed for the presence of endogenous GABARAP and LC3B proteins. • GFP‐FUNDC1 WT, E19V, L21V, E19V/L21V and Y18A/L21A were overexpressed in HEK293 cells and either treated with vehicle only (DMSO) or 20 μM CCCP for 2 h, lysed and GFP‐FUNDC1 immunoprecipitated using anti‐GFP beads (or anti‐RFP beads as control) and subjected to SDS–PAGE and Western blotting. Blots were probed for the presence of endogenous GABARAP and LC3B proteins.
# [3] = tested on: endogenous LC3B; assay: Co-immunoprecipitation of GFP-FUNDC1 with endogenous LC3B, HEK293 cells; type: cell-based; settings: HEK293, non-stimulated (DMSO); Fig 5C left
# Procedure: as §1
Molecule,co-precipitation with GFP-LC3B [1],co-precipitation with GFP-LC3B ([1]; listed as Plekhm1-WCIL),interaction of FUNDC1 with endogenous GABARAP [2],interaction of FUNDC1 with endogenous LC3 [3]
B1,increased co‐precipitation with GFP‐LC3B,increased interaction,,
B2,decreased interaction,,,
B3,,,moderately enhanced,increased LC3 interaction
B4,,,little effect,little effect
